According to patent US20070042500A1, “Direct observation of molecular modifications in biological test systems by measuring flourescence lifetime” (Bayer Healthcare AG, priority 2003, published 2007):

Experiments:
[1] = Fluorescence lifetime (FLT) of phosphorylated vs non-phosphorylated fluoresceine-peptide conjugate, Ultra FLT prototype (Tecan); format: physicochemical; details: 10 nM in 50 mM HEPES pH 7.5; mean of 10 measurements of 1 s
Method: It was intended to investigate whether there is a difference between the fluorescence lifetimes (FLTs) of the fluoresceine-peptide conjugates Fl-P1 and Fl-1. For this purpose, in each case 10 nM Fl-P1 and Fl-1 were dissolved in 50 mM HEPES pH 7.5. The fluorescence lifetimes (FLTs) were measured by means of an Ultra FLT prototype (Tecan). In each case, 10 measurements of 1 s each were averaged.

[2] = FLT of potential reactant and product of the TAFI enzyme reaction; format: physicochemical; details: 60 nM; independent of pH (6-9.5) and NaCl concentration (200 mM, 2 M)
Text: The enzyme thrombin activated with fibrinolysis inhibitor (TAFI) is a carboxypeptidase which plays an important part in thromboses. TAFI cleaves the arginine of the peptide sequence IFTR. This reaction may be detected by either mass spectrometric or chromatographic methods. Both methods are not suitable for high throughput substance testing. Alternatively, more or less complex enzyme cascades or chemical reactions may be used which generate a measurable absorption, fluorescence or luminescence signal. No method has been described to date with which the TAFI reaction can be measured directly and which is suitable at the same time for higher throughput. Therefore, the fluorescence lifetimes of the conjugates FJ23 and FJ24 which both carry a fluorescent dye excitable at 630 nm (Evoblue30, Mobitec) and which differ only in the FJ24 conjugate lacking the C-terminal arginine were measured. FJ23 is a potential reactant of the TAFI reaction, while FJ24 would be the corresponding reaction product. The FJ23 and FJ24 conjugates were dissolved at a concentration of 60 nM in various buffers with pH values of 6, 7, 8 and 9.5, and in the presence of 200 mM and 2 M NaCl.

[3] = biological target: PDE1b phosphodiesterase (Homo sapiens, UniProt Q01064); test: PDE reaction with Fl-cAMP followed directly by fluorescence lifetime; format: biochemical; details: without inhibitor
Chain of PDE1b phosphodiesterase (Q01064 whole entry): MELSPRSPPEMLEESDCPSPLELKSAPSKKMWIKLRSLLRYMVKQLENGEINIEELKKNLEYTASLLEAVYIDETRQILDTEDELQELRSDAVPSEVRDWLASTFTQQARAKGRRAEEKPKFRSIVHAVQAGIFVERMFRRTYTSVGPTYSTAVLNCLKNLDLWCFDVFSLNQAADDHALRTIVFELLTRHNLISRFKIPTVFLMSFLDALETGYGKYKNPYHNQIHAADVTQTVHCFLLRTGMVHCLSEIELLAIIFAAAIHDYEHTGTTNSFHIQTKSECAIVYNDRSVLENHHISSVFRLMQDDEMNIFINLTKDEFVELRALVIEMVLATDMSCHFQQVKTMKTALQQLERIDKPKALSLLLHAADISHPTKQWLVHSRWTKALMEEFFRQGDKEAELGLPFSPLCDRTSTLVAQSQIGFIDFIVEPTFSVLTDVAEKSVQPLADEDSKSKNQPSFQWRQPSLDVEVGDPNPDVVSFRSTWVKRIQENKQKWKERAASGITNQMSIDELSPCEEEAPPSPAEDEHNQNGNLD
Method: Like the phosphatases and kinases discussed above, phosphodiesterases are a very important class of targets, inter alia in the fields of indication of cardiovascular, metabolic disorders, central nervous system, cancer and respiratory diseases. It is therefore of great interest to have a generic assay format which can measure the conversion of cAMP or cGMP to the respective monophosphate. Usually detection enzyme cascades are used. […] In the experiment, first 1 μM Fl-cAMP and a 1:360 dilution of PDE1b were mixed in the presence of different concentrations of the inhibitor BAY 383045. The kinetics of the enzyme reaction was measured by means of an Ultra FLT prototype (Tecan) at room temperature.

[4] = FLT difference between phosphorylated and non-phosphorylated fluoresceine-kemptide under various pH/NaCl conditions; format: physicochemical; details: 50 nM; pH 6.0 to 9.5 buffers
Method: 0.1 M NaOH, 50 mM borate buffer pH 9.5, 50 mM HEPES buffer pH 8.0, 50 mM HEPES buffer pH 7.0, 50 mM MES buffer pH 6.0, 200 mM NaCl (low)
The quality of an FLT assay improves with increasing differences of the fluorescence lifetimes of reactant and product. An optimally large FLT difference will not be measured immediately in every case. On the other hand, it should be possible to increase the FLT difference initially obtained, for example by selecting and combining various parameters such as, for example, fluorescent dye, spacer molecule between dye and substrate molecule, or polarity, pH, ionic strength of the solvent or other additive. […] In each case 50 nM Fl-P-kemptide and Fl-kemptide were dissolved in the solutions described under Material, and their FLTs were measured by means of a modified Nanoscan instrument (IOM GmbH, Berlin, Germany) which transferred the signals to a transient recorder. 16 decay curves were averaged for each data point. The descending part of the logarithmic-scale curve was evaluated by means of linear regression and the negative slope was mathematically converted into FLT.

| Molecule | fluorescence lifetime (FLT) [1] [ps] | differentiation of phosphorylated and non-phosphorylated form by means of FLT [4] | also measured |
| --- | --- | --- | --- |
| fluoresceine-C6-TEGQYpQPQP-COOH [Fl-P1] | 3880 |  |  |
| Evoblue30-Ttds(Spacer)-IFTR-COOH [FJ24] |  |  | fluorescence lifetime [2]: 2194±18 ps |
| Nc1ncnc2c1nc(SCCNC(=S)Nc1ccc(-c3c4ccc(=O)cc-4oc4cc(O)ccc34)c(C(=O)O)c1)n2C1OC2COP(=O)(O)OC2C1O (stereo not shown) [Fl-cAMP, 8-fluo-cAMP] |  |  | fluorescence lifetime at start of PDE1b reaction ([3]; 1 μM Fl-cAMP, start of reaction): approx. 3500 ps; fluorescence lifetime after PDE1b reaction (conversion to Fl-AMP) ([3]; within 100 minutes of reaction): approx. 3350 ps |
| fluoresceine-C6-LRRApSLGCONH2 [Fl-P-kemptide] |  | improves when the pH increases from 6.0 to 9.5 |  |
| fluoresceine-C6-TEGQYQPQP-COOH ({fluorescein-C6}-TEGQYQPQP-OH) [Fl-1] | 3600 |  |  |
| fluoresceine-C6-LRRASLGCONH2 [Fl-kemptide] |  | improves when the pH increases from 6.0 to 9.5 |  |
